# Where a chain is given by its changes, count along the chain named. Ends that are not written are not given here.
# B1: Ab7964 (antibody, V domains shown)
# VH: LVESGGGVVQPGRSLRLSCAASGVTFSRYGMHWVRQAPGKGLEWVAVISYDEKTKYYADSVKGRFTISRDNSKNTLFLHMNRLRYEDTAVYYCAKGASSGAYFDYWGQGTLVTVSS
# VL: not shown
# notes: Recombinant human mAb
# B2: Ab7961/293i (antibody, V domains shown)
# VH: LVESGGGVVQPGKSLRLSCVASGFTFSSYGMHWVRQAPGKGLEWVAVMSFDGKTKYYADSVKGRFTISRDNPKNTLYLQMNSLRSEDTAVYYCAKGGAAAAVFDSWGQGILLTVSS
# VL: MTQSPNSLAVSLGGRATINCKTSQSILYRSNNKNYLAWYQHKSGQPPKLLIYWASTRESGVPDRFSGSGSRTDFTLTISGLQAEDVAVYYCQQYYNPPWTFGQGTKVEIK
# notes: Recombinant human mAb
# B3: Ab7979 (antibody, V domains shown)
# VH: B2 VH with S28T
# VL: B2 VL with S43P, G60R
# notes: Recombinant human mAb
# B4: Ab7960/293i (antibody, V domains shown)
# VH: B2 VH with T25S, S28T, Q108P
# VL: B2 VL with T22A, S43A, D63E, S79N
# notes: Recombinant human mAb
# B5: Ab7955 (antibody, V domains shown)
# VH: LVESGGGVVRPGRSLRLSCVASGFTFNAYGMHWVRQGPGKGLEWLAVISYEGKTVYYADSVKDRFTISRDNSRNTVSLHLNNLRGEDTAVYYCAKGSASAAVLQHWGQGTLVSVTS
# VL: MTQSPGSLAVSLGSRATINCKSSRSLLYRSNNKNYLAWYQQKPGQSPRLLIYWASSRESGVPDRFSGGGSGTSFTLTISSLQAEDVAVYYCQQYFNPPWTFGQGTKVEIK
# notes: Recombinant human mAb
# B6: Ab7957/293i (antibody, V domains shown)
# VH: LVESGGGVVPPGKSLRLSCAASGFTFSLYGIHWVRQAPGKGLEWVAVISYDGNTKYYTDSVKGRFTISRDNAKNTIYLQMNSLRLDDTAVYYCAKGAANSATFDFWGRGTMVTVSS
# VL: MTQSPDSLTLSLGERATINCRSSRTVLYRSNNKNYLAWYQHKPGQPPKLLMSWASTRETGVPDRFSGSGSGTHFTLTITSLQPEDVAVYYCQQYYSPPWTFGQGTKVEIR
# notes: Recombinant human mAb
# B7: CFH mAb7968 (antibody, V domains shown)
# VH: LVESGGGVVQPGRSLRLSCAASGFTFSRYGMHWVRQAPGKGLEWVAVMSYDGSTKYYADSVKGRFAISRDNPKNTLFLQMNSLRPDDTAVYYCAKGGAAAAVMDVWGKGTTVTVSS
# VL: MTQSPDSLTVSLGERATISCKSSQRLLYSSNNKNYLAWYQQKPGQPPKLLMYWASTRESGVPDRFSGSGSGTDFSLTISSLQAEDVAVYYCQQYYNPPWTFGQGTKVEVK
# notes: also called CBAb1
# Key:
# [1] = target: T1, residue mutated to A: P (also: biotinylated, attachment site not given here); assay: ELISA on streptavidin-immobilized biotinylated 15mer peptides; area under the signal vs antibody concentration curve;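 further: antibody binding to each alanine-substituted peptide expressed relative to binding to the natural peptide, using curve area determined separately for every peptide-antibody pair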
# T1 construct: position from the legend (CFH1114-1121)
# T1 peptide: GPPPAIDNGDITSFP
# [2] = target: T2, residue mutated to A: I (also: biotinylated, attachment site not given here); assay: as above
# T2 construct: position from the legend (CFH1114-1121)
# T2 peptide: GPPPPADNGDITSFP
# [3] = target: T3, residue mutated to A: D (3rd column) (also: biotinylated, attachment site not given here); assay: as above
# T3 construct: position from the legend (CFH1114-1121)
# T3 peptide: GPPPPIANGDITSFP
# [4] = target: T4, residue mutated to A: D (6th column) (also: biotinylated, attachment site not given here); assay: as above
# T4 construct: position from the legend (CFH1114-1121)
# T4 peptide: GPPPPIDNGAITSFP
# [5] = target: T5, residue mutated to A: G (also: biotinylated, attachment site not given here); assay: as above
# T5 construct: position from the legend (CFH1114-1121)
# T5 peptide: GPPPPIDNADITSFP
# [6] = target: T6, residue mutated to A: T (also: biotinylated, attachment site not given here); assay: as above
# T6 construct: position from the legend (CFH1114-1121)
# T6 peptide: GPPPPIDNGDIASFP
# [7] = target: T7, reduced Complement Factor H (CFH treated with TCEP) (human, UniProt P08603 19-1231, disulfide bonds reduced with TCEP); assay: immunoblot (Surf-Blot), CFH treated with TCEP (reduced) before electrophoresis; anti-human IgG-HRP
# T7 construct: also called reduced CFH; conformationally distinct form of CFH
# T7 sequence (P08603 19-1231 limits assumed): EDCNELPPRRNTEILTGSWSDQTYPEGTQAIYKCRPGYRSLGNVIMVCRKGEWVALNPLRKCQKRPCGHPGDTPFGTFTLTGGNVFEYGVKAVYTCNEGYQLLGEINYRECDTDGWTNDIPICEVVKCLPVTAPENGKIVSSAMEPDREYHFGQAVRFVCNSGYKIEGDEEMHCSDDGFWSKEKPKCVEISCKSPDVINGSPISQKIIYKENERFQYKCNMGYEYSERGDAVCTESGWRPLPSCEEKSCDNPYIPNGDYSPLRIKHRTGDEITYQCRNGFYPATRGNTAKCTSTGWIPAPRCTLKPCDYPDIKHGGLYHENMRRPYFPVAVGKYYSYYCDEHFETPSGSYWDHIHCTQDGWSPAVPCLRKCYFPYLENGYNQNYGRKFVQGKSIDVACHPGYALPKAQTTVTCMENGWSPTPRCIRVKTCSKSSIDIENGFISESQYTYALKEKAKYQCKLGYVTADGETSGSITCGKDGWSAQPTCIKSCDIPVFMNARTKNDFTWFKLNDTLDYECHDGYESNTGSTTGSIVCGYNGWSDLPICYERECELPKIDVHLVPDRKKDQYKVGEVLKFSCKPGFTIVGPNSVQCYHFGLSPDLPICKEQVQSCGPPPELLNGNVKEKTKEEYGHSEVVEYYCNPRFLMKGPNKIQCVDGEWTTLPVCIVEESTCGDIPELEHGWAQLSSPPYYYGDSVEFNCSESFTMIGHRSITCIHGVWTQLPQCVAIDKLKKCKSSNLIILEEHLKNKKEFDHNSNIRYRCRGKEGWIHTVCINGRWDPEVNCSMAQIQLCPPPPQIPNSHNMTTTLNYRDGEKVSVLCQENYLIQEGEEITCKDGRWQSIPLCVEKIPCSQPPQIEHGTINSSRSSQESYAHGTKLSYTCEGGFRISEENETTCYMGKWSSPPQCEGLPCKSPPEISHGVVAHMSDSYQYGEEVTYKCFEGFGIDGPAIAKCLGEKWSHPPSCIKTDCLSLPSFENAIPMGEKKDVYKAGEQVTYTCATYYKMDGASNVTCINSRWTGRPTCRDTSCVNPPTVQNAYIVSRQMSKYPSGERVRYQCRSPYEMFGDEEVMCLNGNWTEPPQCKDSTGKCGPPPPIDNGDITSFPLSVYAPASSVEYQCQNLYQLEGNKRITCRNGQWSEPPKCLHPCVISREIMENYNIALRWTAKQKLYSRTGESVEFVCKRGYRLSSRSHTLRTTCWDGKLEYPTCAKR
# [8] = target: T8, native Complement Factor H (CFH) (human, UniProt P08603 19-1231); assay: immunoblot (Surf-Blot), CFH treated with Tris-HCl (oxidized) before electrophoresis; anti-human IgG-HRP
# T8 construct: Native, non-reduced CFH; also called native CFH; full-length native CFH
# T8 sequence (P08603 19-1231 limits assumed): as above
# [9] = target: T9, residue mutated to A: N (also: biotinylated, attachment site not given here); assay: ELISA on streptavidin-immobilized biotinylated 15mer peptides; area under the signal vs antibody concentration curve;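 further: antibody binding to each alanine-substituted peptide expressed relative to binding to the natural peptide, using curve area determined separately for every peptide-antibody pair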
# T9 construct: position from the legend (CFH1114-1121)
# T9 peptide: GPPPPIDAGDITSFP
Binder,percent of binding to the natural peptide (AUC) [1],percent of binding to the natural peptide (AUC) [2],percent of binding to the natural peptide (AUC) [3],percent of binding to the natural peptide (AUC) [4],percent of binding to the natural peptide (AUC) [5],percent of binding to the natural peptide (AUC) [6],binding result [7],binding result [8],percent of binding to the natural peptide (AUC) [9]
B1,74%,76%,100%,102%,100%,66%,binds,binds,
B2,56%,52%,100%,105%,104%,16%,binds,binds,
B3,64%,61%,96%,98%,102%,,binds,binds,29%
B4,53%,43%,95%,99%,99%,,binds,binds,
B5,52%,,81%,103%,104%,,,,
B6,61%,61%,100%,102%,99%,48%,binds,binds,30%
B7,73%,73%,102%,101%,100%,54%,,,
